Assay results: paper PMC9091222, “Profiling of hMPV F-specific antibodies isolated from human memory B cells” (Nature Communications, 2022)

Tests used:
[1] = biological target: unprocessed hMPV PreF trimer (wild-type hMPV F ectodomain trimer, strain B2, C-terminal GCN4 trimerization … (Human metapneumovirus, subgroup B2 …, UniProt Q6W8S4, strain)); experiment: cell-based or functional assay
[2] = biological target: T1, processed stabilized hMPV PreF trimer (115BV), co-expressed with furin (Human metapneumovirus, subgroup B2 …, UniProt Q6W8S4, stabilised); experiment: cryo-EM structure; M4B06 Fab incubated with processed PreF (115BV) trimer (trimer:Fab = 1:3) for 1 h at 4 °C, purified on Superdex 200 Increase in 25 mM HEPES pH 7.5, 150 mM NaCl; map at 3.75 Å, no symmetry imposed; Fab not built; conditions: both partners purified
T1 construct: F2 chain of the fusion (F) glycoprotein of human metapneumovirus, strain B2, after cleavage by co-expressed furin; disulfide-linked to F1; F1 chain (ectodomain part) of the fusion (F) glycoprotein of human metapneumovirus, strain B2, after cleavage by co-expressed furin; also called processed PreF; prefusion-stabilized hMPV F trimer 115BV; source: Expi293, co-transfected with furin at 1:1, …

| Binder | neutralization IC50, hMPV A virus (plaque reduction neutralization assay) [1] | neutralization IC50, hMPV B virus (plaque reduction neutralization assay) [1] | stoichiometry N [2] |
| --- | --- | --- | --- |
| M4B06 IgG (antibody, V domains shown) VH: EVQLLESGGGFVQPGGSLRLSCVVTGFTFSNYAMCWVRQAPGKGPEWVSGIGGSVGTTYYADSVKGRFTISRDNSKNTLYLQMSGLRAEDTARYYCAKVPSFFVFEDGFDMWGQGTVVTVSS VL: QSVLTQPPSASGNPGQRVTISCYGSGSNIGNNYVHWFRQLPGTAPRLLIYNTDILVPGVPDRFSGSESGTSASLAISGLQSGDEADYFCAAWDDTLNGYVFGPGTTVTVL | 3.5 ng/mL | 2.2 ng/mL |  |
| M4B06 Fab (Fab, V domains shown, as the heavy chain of m4 before CDR3 (germline IGHV3-23*01); heavy chain CDR3; rest of VH after CDR3 and CH1 of the Fab; as the light chain of m4 before CDR3 (germline IGLV1-44*01); light chain CDR3; as the light chain of m4 after CDR3; The Fab was not built in the cryo-EM density map; also called M4B06 monovalent Fab; source: recombinantly purified) VH: EVQLLESGGGFVQPGGSLRLSCVVTGFTFSNYAMCWVRQAPGKGPEWVSGIGGSVGTTYYADSVKGRFTISRDNSKNTLYLQMSGLRAEDTARYYCAKVPSFFVFEDGFDMWGQGTVVTVSS VL: QSVLTQPPSASGNPGQRVTISCYGSGSNIGNNYVHWFRQLPGTAPRLLIYNTDILVPGVPDRFSGSESGTSASLAISGLQSGDEADYFCAAWDDTLNGYVFGPGTTVTVL |  |  | 3 Fabs per PreF trimer |
